Assay [1] has as its target T1, rSdrG(50-597) (Staphylococcus epidermidis K28, UniProt Q9KI13 50-597).
T1 construct: Used biotin labeled in the Western ligand blots and in the ELISAs on protease-treated Fg; also called recombinant SdrG A-region; recombinant form of the N-terminal A-region of SdrG
T1 sequence: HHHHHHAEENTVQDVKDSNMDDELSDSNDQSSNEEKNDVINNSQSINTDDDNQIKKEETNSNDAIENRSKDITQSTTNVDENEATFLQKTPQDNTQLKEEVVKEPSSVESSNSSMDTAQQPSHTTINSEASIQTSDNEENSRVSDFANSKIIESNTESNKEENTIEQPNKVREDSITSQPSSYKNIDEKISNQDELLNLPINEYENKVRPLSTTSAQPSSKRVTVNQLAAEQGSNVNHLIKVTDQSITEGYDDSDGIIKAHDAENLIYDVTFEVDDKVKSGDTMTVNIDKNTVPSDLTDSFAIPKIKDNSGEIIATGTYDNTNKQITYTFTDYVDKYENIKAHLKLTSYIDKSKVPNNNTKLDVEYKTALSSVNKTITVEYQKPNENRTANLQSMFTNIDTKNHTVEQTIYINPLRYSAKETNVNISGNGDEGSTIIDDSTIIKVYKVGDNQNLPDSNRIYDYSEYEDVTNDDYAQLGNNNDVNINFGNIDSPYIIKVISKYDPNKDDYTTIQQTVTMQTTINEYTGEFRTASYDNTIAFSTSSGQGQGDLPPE
In words: inhibition ELISA, peptide varied, 50 nM rSdrG(50-597), Fg-coated wells. On the technique in general: ELISA stands for enzyme-linked immunosorbent assay.

For assay [2], the target named is T1, rSdrG(50-597). In words: inhibition ELISA, peptide varied, 50 nM rSdrG(50-597), Fg-coated wells; reference β1-25.
Assay [3] deals with T1, rSdrG(50-597). Put plainly: fluorescence polarization, increasing rSdrG(50-597) with 10 nM fluorescein-labeled β1-25, three experiments. A general note: Polarisation of emitted light reports the rotation of a fluorescent probe.
Assay [4] deals with T1, rSdrG(50-597). In words: Western ligand blot, biotin labeled rSdrG(50-597).
For assay [5], the target named is T1, rSdrG(50-597). Put plainly: Western ligand blot of E. coli lysates, biotin labeled rSdrG(50-597) 0.5 µM.
In assay [6] the target is T1, rSdrG(50-597). Put plainly: Western ligand blot.

No end group written: not given here.

For orientation: Kd means a measure of binding affinity in units of concentration. Read a high Kd as lower affinity.

QGVNDNEEGFFSARGHRPLD (ends and bridges not checked, Synthetic peptide (Research Genetics)) [peptide β1-20]: the binding result in the assay with rSdrG(50-597) [1] is on record as “binds”.

B1: fibrinopeptide B (peptide)
peptide: QGVNDNEEGFFSAR
notes: Bought from Bachem; also called FpB; FpB (1-14)
Turning to B1, the “fold less active than the synthetic peptide β1-25 as inhibitor” value with rSdrG(50-597) [2] is 10 fold.

B2: peptide β1-25 (peptide)
peptide: QGVNDNEEGFFSARGHRPLDKKREE
modifications: ends and bridges not checked
notes: Synthetic peptide (Research Genetics); also called unlabeled β1-25; synthetic 25 amino acid peptide representing the N-terminus of the Fg Bβ chain
As to B2, in the assay with rSdrG(50-597) [1], the binding result is given as “binds”.

B3: fluorescein-labeled β1-25 peptide (peptide)
peptide: QGVNDNEEGFFSARGHRPLDKKREE
modifications: ends and bridges not checked; also: fluorescein label, position not given here
notes: used at 10 nM in fluorescence polarization; also called fluorescein-labeled N-terminal Bβ chain peptide β1-25; labeled peptide
Regarding B3, in the assay with rSdrG(50-597) [3], the Kd was 140 nM.

B4: rβ(25-195) (ligand)
chain: EAPSLRPAPPPISGGGYRARPAKAAATQKKVERKAPDAGGCLHADPDLGVLCPTGCQLQEALLQQERPIRNSVDELNNNVEAVSQTSSSSFQYMYLLKDLWQKRQKQVKDNENVVNEYSSELEKHQLYIDETVNSNIPTNLRVLRSILENLRSKIQKLESDVSAQMEYCRT
notes: range 25-195; Expressed in E. coli; whole cell lysate on the blot; The text says it lacks the N-terminal 25 residues although the name begins at 25; not shown: N-terminal His-tag or GST fusion
As to B4, in the assay with rSdrG(50-597) [4], the binding result is recorded as “no binding (tested: 0.5 µM)”.

B5: rβ(1-95) (ligand)
chain: QGVNDNEEGFFSARGHRPLDKKREEAPSLRPAPPPISGGGYRARPAKAAATQKKVERKAPDAGGCLHADPDLGVLCPTGCQLQEALLQQERPIRN
notes: range 1-95; Expressed in E. coli; whole cell lysate on the blot; also called recombinant truncate encompassing residues 1-95; not shown: N-terminal His-tag or GST fusion
Turning to B5, the binding result with rSdrG(50-597) [5] is “binds”.

As to NEEGFFSARGHRPLDKKREE (Synthetic peptide (Research Genetics)) [peptide β6-25], in the assay with rSdrG(50-597) [1], the binding result is reported as “binds”.

B6: native Bβ chain of fibrinogen (ligand)
chain: QGVNDNEEGFFSARGHRPLDKKREEAPSLRPAPPPISGGGYRARPAKAAATQKKVERKAPDAGGCLHADPDLGVLCPTGCQLQEALLQQERPIRNSVDELNNNVEAVSQTSSSSFQYMYLLKDLWQKRQKQVKDNENVVNEYSSELEKHQLYIDETVNSNIPTNLRVLRSILENLRSKIQKLESDVSAQMEYCRTPCTVSCNIPVVSGKECEEIIRKGGETSEMYLIQPDSSVKPYRVYCDMNTENGGWTVIQNRQDGSVDFGRKWDPYKQGFGNVATNTDGKNYCGLPGEYWLGNDKISQLTRMGPTELLIEMEDWKGDKVKAHYGGFTVQNEANKYQISVNKYRGTAGNALMDGASQLMGENRTMTIHNGMFFSTYDRDNDGWLTSDPRKQCSKEDGGGWWYNRCHAANPNGRYYWGGQYTWDMAKHGTDDGVVWMNWKGSWYSMRKMSMKIRPFFPQQ
notes: Chain of native Fg on a Western ligand blot; also called Fg Bβ chain
Regarding B6, the binding result with rSdrG(50-597) [6] is “binds”.

B7: rβ(25-95) (ligand)
chain: EAPSLRPAPPPISGGGYRARPAKAAATQKKVERKAPDAGGCLHADPDLGVLCPTGCQLQEALLQQERPIRN
notes: range 25-95; Expressed in E. coli; whole cell lysate on the blot; The text says it lacks the N-terminal 25 residues although the name begins at 25; not shown: N-terminal His-tag or GST fusion
Take B7: the binding result with rSdrG(50-597) [4] is “no binding (tested: 0.5 µM)”.

B8: γ chain of Fg (ligand)
chain: YVATRDNCCILDERFGSYCPTTCGIADFLSTYQTKVDKDLQSLEDILHQVENKTSEVKQLIKAIQLTYNPDESSKPNMIDAATLKSRKMLEEIMKYEASILTHDSSIRYLQEIYNSNNQKIVNLKEKVAQLEAQCQEPCKDTVQIHDITGKDCQDIANKGAKQSGLYFIKPLKANQQFLVYCEIDGSGNGWTVFQKRLDGSVDFKKNWIQYKEGFGHLSPTGTTEFWLGNEKIHLISTQSAIPYALRVELEDWNGRTSTADYAMFKVGPEADKYRLTYAYFAGGDAGDAFDGFDFGDDPSDKFFTSHNGMQFSTWDNDNDKFEGNCAEQDGSGWWMNKCHAGHLNGVYYQGGTYSKASTPNGYDNGIIWATWKTRWYSMKKTTMKIIPFNRLTIGEGQQHHLGGAKQAGDV
notes: Chain of native Fg on a Western ligand blot
As for B8, the binding result with rSdrG(50-597) [4] is recorded as “no binding”.

B9: rβ(1-341) (ligand)
chain: QGVNDNEEGFFSARGHRPLDKKREEAPSLRPAPPPISGGGYRARPAKAAATQKKVERKAPDAGGCLHADPDLGVLCPTGCQLQEALLQQERPIRNSVDELNNNVEAVSQTSSSSFQYMYLLKDLWQKRQKQVKDNENVVNEYSSELEKHQLYIDETVNSNIPTNLRVLRSILENLRSKIQKLESDVSAQMEYCRTPCTVSCNIPVVSGKECEEIIRKGGETSEMYLIQPDSSVKPYRVYCDMNTENGGWTVIQNRQDGSVDFGRKWDPYKQGFGNVATNTDGKNYCGLPGEYWLGNDKISQLTRMGPTELLIEMEDWKGDKVKAHYGGFTVQNEANKYQIS
notes: range 1-341; Expressed in E. coli; whole cell lysate on the blot; also called recombinant truncate encompassing residues 1-341; not shown: N-terminal His-tag or GST fusion
Turning to B9, the binding result with rSdrG(50-597) [5] was “binds”.

B10: rβ(1-195) (ligand)
chain: QGVNDNEEGFFSARGHRPLDKKREEAPSLRPAPPPISGGGYRARPAKAAATQKKVERKAPDAGGCLHADPDLGVLCPTGCQLQEALLQQERPIRNSVDELNNNVEAVSQTSSSSFQYMYLLKDLWQKRQKQVKDNENVVNEYSSELEKHQLYIDETVNSNIPTNLRVLRSILENLRSKIQKLESDVSAQMEYCRT
notes: range 1-195; Expressed in E. coli; whole cell lysate on the blot; also called recombinant truncate encompassing residues 1-195; not shown: N-terminal His-tag or GST fusion
B10: in the assay with rSdrG(50-597) [5], the binding result is listed as “binds”.

B11: rβ(1-220) (ligand)
chain: QGVNDNEEGFFSARGHRPLDKKREEAPSLRPAPPPISGGGYRARPAKAAATQKKVERKAPDAGGCLHADPDLGVLCPTGCQLQEALLQQERPIRNSVDELNNNVEAVSQTSSSSFQYMYLLKDLWQKRQKQVKDNENVVNEYSSELEKHQLYIDETVNSNIPTNLRVLRSILENLRSKIQKLESDVSAQMEYCRTPCTVSCNIPVVSGKECEEIIRKGGE
notes: range 1-220; Expressed in E. coli; whole cell lysate on the blot; also called recombinant truncate encompassing residues 1-220; not shown: N-terminal His-tag or GST fusion
As to B11, in the assay with rSdrG(50-597) [5], the binding result is reported as “binds”.

B12: peptide β6-20 (peptide)
peptide: NEEGFFSARGHRPLD
notes: Synthetic peptide made in the inventors' laboratory
As for B12, in the assay with rSdrG(50-597) [1], the binding result is “binds”.

Source of the values: patent US20030044418A1 (TEXAS A AND M UNIVERSITY SYSTEM UNIVERSITY, published 2003).
